In PMC2945410:

Experiments:
[1] = test system: O=[N+]([O-])c1ccc(OP(=O)(O)Oc2ccc([N+](=O)[O-])cc2)cc1; experiment: purified protein; type: biochemical, Shigella flexneri; details: standard assay: 50 mM HEPES pH 7.5, 2 mM MnCl2
[2] = test system: O=[N+]([O-])c1ccc(OP(=O)(O)Oc2ccc([N+](=O)[O-])cc2)cc1; experiment: purified protein; type: biochemical, Thiobacillus denitrificans; details: standard assay: 50 mM HEPES pH 7.5, 2 mM MnCl2

Substance: SFV_3559 EAL domain (YhjK) (Shigella flexneri)
- Km [1]: 14.1 ± 4.2 mM
- Vmax [1]: 2.1 µmol/min/mg
- kcat [1]: 8 s⁻¹
- kcat/Km [1]: 600 M⁻¹ s⁻¹

Substance: TBD1265 EAL domain (Thiobacillus denitrificans ATCC 25259)
- Km [2]: 20.0 ± 1.3 mM
- Vmax [2]: 0.1 µmol/min/mg
- kcat [2]: 0.06 s⁻¹
- kcat/Km [2]: 3 M⁻¹ s⁻¹
